Measurements as given in article PMC9424529, “Small molecule mediated inhibition of protein cargo recognition by peroxisomal transport receptor PEX5 is toxic to Trypanosoma” (Scientific Reports, 2022).
Where no end group is shown, it is not given here. The star is where a group is joined. 6FAM = O=C1OC2(c3ccc(O)cc3Oc3cc(O)ccc32)c2cc(C(=O)*)ccc21

T1: TPR domain of T. cruzi PEX5 (347–668) (T. cruzi, UniProt Q4DPQ9 347-668)
T1 construct: PEX5, Trypanosoma cruzi, C-terminal tetratricopeptide repeat (TPR) domain, residues 347-668; codon-optimised synthetic gene in the petHSU vector; The His-SUMO tag was cleaved on the column with dtUD1 protease; also called TcPEX5; TcPEX5 (TPR domain); source: E. coli BL21 (DE3), purified (HiTrap IMAC, on-column tag cleavage, SEC S75); not shown: His6, N-terminal, cleaved
T1 sequence (looked up): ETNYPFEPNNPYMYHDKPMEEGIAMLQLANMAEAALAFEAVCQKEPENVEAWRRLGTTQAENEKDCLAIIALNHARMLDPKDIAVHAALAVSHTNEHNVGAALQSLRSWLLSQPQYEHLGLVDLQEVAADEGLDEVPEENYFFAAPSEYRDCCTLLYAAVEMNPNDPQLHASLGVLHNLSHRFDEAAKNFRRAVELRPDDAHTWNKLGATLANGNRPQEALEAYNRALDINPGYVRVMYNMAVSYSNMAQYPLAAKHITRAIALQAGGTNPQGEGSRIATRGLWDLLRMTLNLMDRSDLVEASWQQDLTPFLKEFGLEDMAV

B1: 6-FAM-labelled PTS1 (6-FAM-YQSKL) (peptide)
peptide: 6FAM-YQSKL
notes: pentapeptide representing peroxisomal targeting signal 1 (PTS1); also called 6-FAM-PTS1; FAM-PTS1
B2: unlabeled PTS1 peptide (peptide)
peptide: YQSKL
notes: pentapeptide representing PTS1, without the label; also called PTS1 alone; unlabeled PTS peptide

Columns and labels:
[1] = target: T1, TPR domain of T. cruzi PEX5 (347–668); assay: fluorescence polarisation; saturation binding: 10 nM 6-FAM-PTS1 titrated with TcPEX5 (0.1–250 nM); 10 mM Hepes pH 7.5, 100 mM NaCl, 5% DMSO; one-site fit; conditions: both partners purified
[2] = target: T1, TPR domain of T. cruzi PEX5 (347–668); assay: fluorescence polarisation; competitive: increasing unlabeled PTS1 added to 30 nM TcPEX5 (f0 = 0.8) and 10 nM 6-FAM-PTS1; Ki by curve fitting; conditions: both partners purified

Row | Binder | Kd [1] | Ki [2]
1 | B1 | 21 nM | 
2 | B2 |  | 126 nM
